Assay results reported in patent US20260078196A1 (TJ BIOPHARMA SHANGHAI, published 2026).
Read-outs that look alike come from different tables or passages of the source.

How the values were obtained:
huMUC16, AA13789-14451 = target: T1, huMUC16, AA13789-14451; test: binding ELISA on huMUC16 AA13789-14451
T1 construct: also called MUC16 Antigen (human MUC16 AA13789-14451)
T1 chain: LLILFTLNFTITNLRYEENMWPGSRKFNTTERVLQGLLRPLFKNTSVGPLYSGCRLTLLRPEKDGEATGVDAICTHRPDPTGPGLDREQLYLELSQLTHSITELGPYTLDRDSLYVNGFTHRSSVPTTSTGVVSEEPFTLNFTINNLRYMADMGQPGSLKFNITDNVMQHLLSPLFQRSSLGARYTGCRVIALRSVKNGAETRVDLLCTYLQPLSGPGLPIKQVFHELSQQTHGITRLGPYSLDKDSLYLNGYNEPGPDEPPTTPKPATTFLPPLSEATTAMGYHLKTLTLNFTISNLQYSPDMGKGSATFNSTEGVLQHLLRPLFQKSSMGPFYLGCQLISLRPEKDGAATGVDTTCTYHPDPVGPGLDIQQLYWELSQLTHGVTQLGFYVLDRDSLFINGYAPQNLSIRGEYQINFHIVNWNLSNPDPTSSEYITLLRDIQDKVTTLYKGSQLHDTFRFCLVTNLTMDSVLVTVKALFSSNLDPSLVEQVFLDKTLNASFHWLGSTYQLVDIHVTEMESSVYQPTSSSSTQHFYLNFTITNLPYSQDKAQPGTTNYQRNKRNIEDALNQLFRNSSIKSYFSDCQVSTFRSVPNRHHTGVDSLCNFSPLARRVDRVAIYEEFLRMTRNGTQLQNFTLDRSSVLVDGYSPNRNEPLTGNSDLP

huMUC16, AA14198-14507 = target: T2, huMUC16, AA14198-14507; test: binding ELISA on huMUC16 AA14198-14507
T2 chain: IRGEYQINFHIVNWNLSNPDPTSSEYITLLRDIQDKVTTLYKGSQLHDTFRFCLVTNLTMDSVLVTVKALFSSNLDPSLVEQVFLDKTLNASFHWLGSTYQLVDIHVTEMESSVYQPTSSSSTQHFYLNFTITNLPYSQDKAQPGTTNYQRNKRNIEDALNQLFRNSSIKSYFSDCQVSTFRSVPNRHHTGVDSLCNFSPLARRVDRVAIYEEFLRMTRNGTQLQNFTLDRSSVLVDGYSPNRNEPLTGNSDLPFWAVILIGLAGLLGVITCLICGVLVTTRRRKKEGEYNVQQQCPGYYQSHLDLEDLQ

human MUC16 on cells [1] = target: T3, human MUC16 on cells (human, UniProt Q8WXI7 1-14507); test: flow cytometry (GMFI) on OVCAR3 cells, nM is the unit of the x axis Log10[Ab] (nM); curve without upper plateau
T3 construct: whole, on cells; also called huMUC16; MUC16 on OVCAR3 and SNU216 cells

human MUC16 on cells [2] = target: T3, human MUC16 on cells; test: flow cytometry (GMFI) on OVCAR3 cells, nM is the unit of the x axis Log10[Ab] (nM)
human MUC16 on cells [3] = target: T3, human MUC16 on cells; test: flow cytometry (MFI GeoMean) on OVCAR3 cells, nM is the unit of the x axis Log10[Ab] (nM)
human MUC16 on cells [4] = target: T3, human MUC16 on cells; test: flow cytometry (MFI GeoMean) on SNU216 cells, nM is the unit of the x axis Log10[Ab] (nM)
[5] = target: T4, HEK293-MUC16 (13810-14507) (human, UniProt Q8WXI7 13810-14507); test: flow cytometry (MFI GeoMean) on HEK293-MUC16 (13810-14507) cells, nM is the unit of the x axis Log10[Ab] (nM)
T4 construct: range 13810-14507; also called MUC16 overexpressed HEK293 cells
T4 sequence: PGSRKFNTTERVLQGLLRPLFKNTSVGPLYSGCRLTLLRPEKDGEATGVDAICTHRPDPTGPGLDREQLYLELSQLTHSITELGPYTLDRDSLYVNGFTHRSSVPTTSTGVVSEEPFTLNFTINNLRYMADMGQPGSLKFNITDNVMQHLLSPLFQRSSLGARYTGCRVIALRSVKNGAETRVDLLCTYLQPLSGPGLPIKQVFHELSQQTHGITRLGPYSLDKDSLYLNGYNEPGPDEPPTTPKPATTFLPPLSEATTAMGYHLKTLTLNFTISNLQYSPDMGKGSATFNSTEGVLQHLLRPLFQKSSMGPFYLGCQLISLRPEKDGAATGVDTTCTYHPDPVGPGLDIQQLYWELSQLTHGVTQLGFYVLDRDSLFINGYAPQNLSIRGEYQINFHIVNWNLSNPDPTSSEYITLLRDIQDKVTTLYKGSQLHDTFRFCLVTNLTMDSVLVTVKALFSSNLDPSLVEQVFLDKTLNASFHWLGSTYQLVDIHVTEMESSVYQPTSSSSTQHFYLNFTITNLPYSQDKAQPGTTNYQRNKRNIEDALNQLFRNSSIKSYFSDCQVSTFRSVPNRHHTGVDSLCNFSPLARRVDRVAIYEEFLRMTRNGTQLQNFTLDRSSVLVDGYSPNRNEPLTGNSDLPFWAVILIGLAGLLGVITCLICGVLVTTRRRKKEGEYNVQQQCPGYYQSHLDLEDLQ

human MUC16 on cells [6] = target: T3, human MUC16 on cells; test: flow cytometry (GMFI) on OVCAR3 cells, nM is the unit of the x axis Log10[Ab] (nM); curve without upper plateau; remark: listed apart in the source
human MUC16 = target: T5, human MUC16 (human); test: binding kinetics, sensorgrams in RU in FIG. 14B, model printed: Kinetics 1:1; form of the MUC16 antigen not given
T5 construct: also called MUC16 antigen of the kinetic assay

ROR1 on cells [7] = target: T6, ROR1 on cells (UniProt Q01973 30-937); test: flow cytometry (gMFI) on A549 cells
T6 construct: whole, on cells; also called ROR1 endogenous expressed tumor cell A549; ROR1-positive tumor cell lines

ROR1 on cells [8] = target: T6, ROR1 on cells; test: flow cytometry (gMFI) on A549 cells; remark: listed apart in the source

B1: B195 (antibody, V domains shown)
VH: EVQLVQSGAEVKKPGASVKVSCKASGGTFSSYAISWVRQAPGQGLEWMGGIIPIFGTANYAQKFQGRVTITADESTSTAYMELSSLRSEDTAVYYCAREGPDYGDYSWSMDYYYGMDVWGQGTMVTVSS
VL: EIVMTQSPGTLSLSPGERATLSCRASQSVNSRYLAWYQHKPGQAPRLLMYGASTRATGIPDRFSGSGSGTDFTLTISRLEPEDFAVYYCQQYGTFSITFGQGTRLEIK
notes: Anti-MUC16 mAb
In the case of B1, the binding result (huMUC16, AA13789-14451) is reported as “binds”, the binding result (huMUC16, AA14198-14507) is reported as “no binding (tested: 100 nM)” and the EC50 (human MUC16 on cells [1]) is reported as 15.1 nM.

B2: D79 (antibody, V domains shown)
VH: QMQLVQSGAEVKKPGSSVKVSCKASGGTFSSYAISWVRQAPGQGLEWMGGIIPIFGTANYAQKFQGRVTITADESTSTAYMELSSLRSEDTAVYYCARDSGSSITMVRGGDYYYMDVWGKGTTVTVSS
VL: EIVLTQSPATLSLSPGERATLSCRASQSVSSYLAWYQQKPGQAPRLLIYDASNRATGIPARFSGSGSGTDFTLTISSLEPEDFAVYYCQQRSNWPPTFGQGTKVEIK
notes: Anti-MUC16 mAb
With B2 the binding result (huMUC16, AA13789-14451) was “binds”, the binding result (huMUC16, AA14198-14507) was “no binding (tested: 100 nM)” and the EC50 (human MUC16 on cells [1]) was 40.6 nM.

B3: D100 (antibody, V domains shown)
VH: QVQLVQSGAEVKKPGSSVKVSCKASGGTFSRYHAISWVRQAPGQGLEWMGGIIPILGTANYAQKFQGRVTITADESTSTAYMELSSLRSEDTAVYYCASGTTAARYYYYYYYMDVWGKGTTVTVSS
VL: NIQMTQSPSSLSASVGDRVTITCQASQDISNYLNWFHQKPGKAPNLLIYDASNLETGVPSRFSGSGSGTDFTFTISSLQPEDIGTYYCQQYDNLPLTFGGGTKVDIK
notes: Anti-MUC16 mAb; also called MUC16-D100
With B3 the binding result (huMUC16, AA13789-14451) was “binds”, the binding result (huMUC16, AA14198-14507) was “no binding (tested: 100 nM)” and the EC50 (human MUC16 on cells [2]) was 0.395 nM. For the same binder, the EC50 (human MUC16 on cells [3]) was 0.286 nM, the EC50 (human MUC16 on cells [4]) was 0.12 nM and the EC50 [5] was 0.0874 nM.

B4: D41 (antibody, V domains shown)
VH: EVQLLESGGGLVQPGGSLRLSCAASGFTFSSYEMNWVRQAPGKGLEWVGRIKSKTDGGTTDYAAPVKGRFTISRDDSKNTLYLQMNSLKTEDTAVYYCTTDLAAVAGLFDYWGQGTTVTVSS
VL: DIQLTQSPSSLSASVGDRVTITCQASQDISNYLNWYQQKPGKAPKLLIYDASNLETGVPSRFSGSGSGTDFTLTISSLQPEDFATYYCQQSYSTPWKFGQGTKVEIK
notes: Anti-MUC16 mAb
B4 was tested, and the binding result (huMUC16, AA13789-14451) was “binds”, the binding result (huMUC16, AA14198-14507) was “no binding (tested: 100 nM)” and the EC50 (human MUC16 on cells [6]) was 23.1 nM.

B5: D57 (antibody, V domains shown)
VH: EVQLLESGGGLVTPGGSLRLSCTASGFTFSDYYLSWVRQAPGKGLEWMGGIIPIFGTANYAQKFQGRVTITADESTSTAYMELSSLRSEDTAVYYCARGGPHYDFWSGYTPGQHGGAFDIWGQGTMVTVSS
VL: EIVLTQSPGTLSLSPGERATLSCRASQSVSSSYLAWYQQKPGQAPRLLIYGASSRATGIPDRFSGSGSGTDFTLTISRLEPEDFAVYYCQQRSNWRNTFGQGTRLEIK
notes: Anti-MUC16 mAb; also called MUC16-D57
B5 gave an EC50 (human MUC16 on cells [2]) of 0.526 nM, a Kd (human MUC16) of 5.26 nM and a koff (human MUC16) of 0.0035 s⁻¹. For the same binder, the EC50 (human MUC16 on cells [3]) was 0.763 nM, the EC50 (human MUC16 on cells [4]) was 1.24 nM and the EC50 [5] was 0.579 nM.

B6: 3C5 (antibody, V domains shown)
VH: EVKLVESGGGLVKPGGSLKLSCAASGFTFSSYAMSWVRQTPEKRLEWVSSISSGGTTYYPDTVKGRFTISRDNARNILYLQMSSLRSEDTAMYYCARDSLYYGSSLYYAMDYWGQGTSVTVSS
VL: DIKMTQSPSSMYASLGERVSITCRASQDIYSYLSWFQQKPGKSPKTLIYRANRLVDGVPSRFSGSGSGQDYSLTISSLEYEDMGIYYCLQYDEFPYTFGGGTKLEIK
notes: Anti-ROR1 mAb (chimeric section 9.1); also called anti-ROR1 mAb 3C5
With B6 the “EC50 (read off the curve)” value (ROR1 on cells [7]) was ~0.04 nM.

B7: B218 (antibody, V domains shown)
VH: EVQLLESGAEVKKPGSSVKVSCKASGGTFSSYAISWVRQAPGQGLEWMGGIIPIFGTANYAQKFQGRVTITADESTSTAYMELSSLRSEDTAVYYCARGGPHYDFWSGYTPGQHGGAFDIWGQGTMVTVSS
VL: NIQMTQSPSTLSASLGDRVSITCRASQSISGWLAWYQQKPGKAPKLLIYRTSYLESGVPSRFSAGGSGTEFTLTISSLQPDDFATYYCQHYDTFSRAFGQGTKVDIK
notes: Anti-MUC16 mAb; also called MUC16-B218
B7 was tested, and the binding result (huMUC16, AA13789-14451) was “binds”, the binding result (huMUC16, AA14198-14507) was “no binding (tested: 100 nM)” and the EC50 (human MUC16 on cells [2]) was 0.687 nM. The Kd (human MUC16) was 6.17 nM, the koff (human MUC16) was 0.0031 s⁻¹ and the kon (human MUC16) was 502000 M⁻¹ s⁻¹. The EC50 (human MUC16 on cells [3]) was 0.907 nM, the EC50 (human MUC16 on cells [4]) was 0.76 nM and the EC50 [5] was 0.244 nM.

B8: B76 (antibody, V domains shown)
VH: QMQLVQSGAEVKKPGSSVKVSCKASGGTFSSYAISWVRQAPGQGLEWMGGIIPIFGTANYAQKFQGRVTITADESTSTAYMELSSLRSEDTAVYYCARSITDYYDSSGYYFRPHFNTGYYYGMDVWGQGTTVTVSS
VL: NIQLTQSPSSLSASVGDRVTITCRASQGINNYLAWYQQKPGKVPKLLIYAASTLQSGVPSRFSGSGSGTDFTLTITNLQPDDFATYYCQQYDTFSETFGPGTKVEIK
notes: Anti-MUC16 mAb
B8 was tested, and the binding result (huMUC16, AA13789-14451) was “binds”, the binding result (huMUC16, AA14198-14507) was “no binding (tested: 100 nM)” and the EC50 (human MUC16 on cells [1]) was 16.8 nM.

B9: 8F2 (antibody, V domains shown)
VH: EVQLQQSGPELVKPGASVKMSCKASGYTFTTYVMHWVKQKPGQGLEWIGYINPYNGGIRYNEKFKGKATLTSDKSSSTAYMELSSLTSEDSAVYYCARRERGVYYGMDEWGQGTSVTVSS
VL: DVVMTQTPLTLSVTIGQPASISCKSSQSLLHSNGKTYLNWLLQRPGQSPNLLIYLVSKLESGVPDRFSGSGSGTDFTLKISRVEAEDLGVYYCLQATYFPYTFGSGTKLEIK
notes: Anti-ROR1 mAb (chimeric section 9.1); also called anti-ROR1 mAb 8F2
In the case of B9, the “EC50 (read off the curve)” value (ROR1 on cells [8]) is reported as ~0.02 nM.

B10: humanized 3C5 anti-ROR1 mAb (antibody, V domains shown)
VH: EVQLVESGGGLVKPGGSLRLSCAASGFTFSSYAMSWVRQAPGKRLEWVSSISSGGTTYYPDTVKGRFTISRDNAKNSLYLQMNSLRAEDTAVYYCARDALYYGSSLYYAMDYWGQGTLVTVSS
VL: DIQMTQSPSSLSASVGDRVTITCRASQDIYSYLSWFQQKPGKAPKTLIYRANRLVDAVPSRFSGSGSGQDYTLTISSLQPEDFATYYCLQYDEFPYTFGQGTKLEIK
notes: also called h3C5; h3C5-PTM
B10 was tested, and the “EC50 (read off the curve)” value (ROR1 on cells [7]) was ~0.04 nM.
